The assay has as its target T1, LMP1重组蛋白抗原 (SEQ ID NO.2, 213-408aa of LMP1, expressed in E. coli) (Epstein-Barr virus, UniProt P29362 187-404).
T1 construct: Recombinant fragment purified with NTA buffers (a tag from the expression vector is likely but is not described); also called LMP1蛋白
T1 chain: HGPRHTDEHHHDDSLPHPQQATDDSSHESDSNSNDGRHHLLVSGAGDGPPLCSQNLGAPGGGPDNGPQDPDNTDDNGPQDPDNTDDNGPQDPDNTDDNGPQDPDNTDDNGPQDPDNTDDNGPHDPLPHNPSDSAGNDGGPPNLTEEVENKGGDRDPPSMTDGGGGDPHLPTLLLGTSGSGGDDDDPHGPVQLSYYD
Kind of assay: non-competitive ELISA by Beatty's method, power curve model. A general note: In an ELISA, binding on a coated surface is turned into a signal by an enzyme label.

B1: 抗LMP1单克隆抗体 7B63B10 (secreted by hybridoma cell line 7B63B10, CCTCC NO: C2019160) (antibody, IgG2b, V domains shown)
VH: EVKLVESGGGFVQPGGSRKLSCAASGFTFSSFGMHWVRQAPEKGLEWVAYISSGSSTIYYADTVKGRFTISRDNPKNTLFLQMTSLRSEDTAMYYCARDWVLDYWGQGTTLTVSS
VL: DIVITQTPLSLPVSLGDQASVSCRSSQSLVHSNGNTYLHWYLQKPGQSPKLLIYKVSNRFSGVPDRFSGSGSGTDFTLNISRVEAEDLGVYFCSQSTHVPFTFGGGTKLEIKR
notes: Mouse (Balb/c) hybridoma antibody, Ig type IgG2b; also called LMP1 7B63B10; 本发明单克隆抗体
B1 had a Ka of 9e+09 M⁻¹.
